As usually defined, the Kd is a measure of binding affinity in units of concentration. Low values mean a tighter complex, high ones a looser complex.

Where two headings read alike, the source gives them in different places.

Common to all, as to assay: SPR
One test addresses cat Fcμ–J complex (cat).
Test [1] deals with T1, human Fcμ–J complex (pentameric IgM core: IgM-Fc pentamer and J chain) (human, UniProt P01871-1 106-453; P01591 23-159).
The target in test [2] is T1, human Fcμ–J complex (pentameric IgM …). This is another data set of the same source.
Test [3] has the same target. This is another data set of the same source.
Another test addresses T2, mouse Fcμ–J complex (mouse, UniProt P01872 104-454; P01592 22-159).
T2 sequence (looked up) 1: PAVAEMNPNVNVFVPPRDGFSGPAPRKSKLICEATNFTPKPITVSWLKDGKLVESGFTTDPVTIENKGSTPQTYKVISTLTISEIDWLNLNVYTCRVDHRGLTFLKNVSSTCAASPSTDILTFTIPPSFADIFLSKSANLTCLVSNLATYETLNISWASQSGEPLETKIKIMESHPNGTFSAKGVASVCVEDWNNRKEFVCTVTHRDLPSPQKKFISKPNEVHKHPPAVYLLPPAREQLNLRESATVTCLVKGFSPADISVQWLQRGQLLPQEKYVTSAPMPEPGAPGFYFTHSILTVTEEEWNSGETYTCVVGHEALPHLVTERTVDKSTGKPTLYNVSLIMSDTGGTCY
T2 sequence (looked up) 2: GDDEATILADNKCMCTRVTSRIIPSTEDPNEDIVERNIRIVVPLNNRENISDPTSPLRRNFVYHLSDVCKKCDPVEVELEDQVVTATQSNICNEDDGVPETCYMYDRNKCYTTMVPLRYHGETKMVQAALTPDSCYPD

Consider “cat CD5L (3-SRCR isoform) (from UniProt A0A1E1GEY0 20-355) (natural protein)”, for which the Kd with cat Fcμ–J complex (cat) came out at 11 nM.

B1: human CD5L (CD5 antigen-like) (natural protein, UniProt O43866 20-347, looked up)
chain: SPSGVRLVGGLHRCEGRVEVEQKGQWGTVCDDGWDIKDVAVLCRELGCGAASGTPSGILYEPPAEKEQKVLIQSVSCTGTEDTLAQCEQEEVYDCSHDEDAGASCENPESSFSPVPEGVRLADGPGHCKGRVEVKHQNQWYTVCQTGWSLRAAKVVCRQLGCGRAVLTQKRCNKHAYGRKPIWLSQMSCSGREATLQDCPSGPWGKNTCNHDEDTWVECEDPFDLRLVGGDNLCSGRLEVLHKGVWGSVCDDNWGEKEDQVVCKQLGCGKSLSPSFRDRKCYGPGVGRIWLDNVRCSGEEQSLEQCQHRFWGFHDCTHQEDVAVICSG
As to B1, binding in test [1] was characterised by a dissociation constant (Kd) of 30 nM. This lies in the double-digit nanomolar range.

B2: D1 domain of FcμR (domain or fragment, human)
chain: RILPEVKVEGELGGSVTIKCPLPEMHVRIYLCREMAGSGTCGTVVSTTNFIKAEYKGRVTLKQYPRKNLFLVEVTQLTESDSGVYACGAGMNTDRGKTQKVTLNVHS
With B2, the Kd in test [2] is 7.2 nM; in test [3], 0.3 nM.

B3: mouse CD5L (natural protein, UniProt Q9QWK4 22-352, looked up)
chain: ESPTKVQLVGGAHRCEGRVEVEHNGQWGTVCDDGWDRRDVAVVCRELNCGAVIQTPRGASYQPPASEQRVLIQGVDCNGTEDTLAQCELNYDVFDCSHEEDAGAQCENPDSDLLFIPEDVRLVDGPGHCQGRVEVLHQSQWSTVCKAGWNLQVSKVVCRQLGCGRALLTYGSCNKNTQGKGPIWMGKMSCSGQEANLRSCLLSRLENNCTHGEDTWMECEDPFELKLVGGDTPCSGRLEVLHKGSWGSVCDDNWGEKEDQVVCKQLGCGKSLHPSPKTRKIYGPGAGRIWLDDVNCSGKEQSLEFCRHRLWGYHDCTHKEDVEVICTDFDV
B3 yielded a Kd with mouse Fcμ–J complex of 5 nM.

These data come from paper doi:10.1101/2023.12.18.572142 (bioRxiv, 2023).
